Consider one protein from PMC3466216, “The CRISPR Associated Protein Cas4 Is a 5′ to 3′ DNA Exonuclease with an Iron-Sulfur Cluster” (PLoS ONE, 2012).

The data set concerns the molecule itself. Put plainly: SEC; calibrated Superose-12 column, buffer E (20 mM Tris-HCl pH 7.5, 250 mM NaCl, 10% glycerol), flow rate 0.8 ml/min; self-association, size of the oligomer not determined. In general terms: SEC sorts molecules by how far they enter the pores of the column.

B1: Sso0001 (Cas4 family protein from Sulfolobus solfataricus) (enzyme, Sulfolobus solfataricus P2, UniProt Q97TX9 1-202, looked up)
chain: MITEFLLKKKLEEHLSHVKEENTIYVTDLVRCPRRVRYESEYKELAISQVYAPSAILGDILHLGLESVLKGNFNAETEVETLREINVGGKVYKIKGRADAIIRNDNGKSIVIEIKTSRSDKGLPLIHHKMQLQIYLWLFSAEKGILVYITPDRIAEYEINEPLDEATIVRLAEDTIMLQNSPRFNWECKYCIFSVICPAKLT
notes: Sso0001, Cas4 family protein of Sulfolobus solfataricus P2; the sso0001 gene was amplified from the genome with primers that begin at the start codon and end after the stop codon; a single subunit is printed as 23 kDa; Carries an iron-sulfur cluster (mean 4.3 iron atoms per protein, consistent with 4Fe:4S); No removal of the tag is described; The size of the oligomer was not determined; also …
Turning to B1, the binding result was “binds”.
